In US8415106B2, “Cell-based screen for agents useful for reducing neuronal demyelination or promoting neuronal remyelination” (Myelin Repair Foundation, Inc., priority 2005, dated 2013):
Like-named read-outs stand apart in the source and are kept apart here.

System: myelinating oligodendrocytes in the CNS
Format: in vivo
Description: To study the effect of INF-γ on the myelination of oligodendrocytes during mouse development, transgenic mice that allow for temporally regulated delivery of IFN-γ to the CNS using the tetracycline (tet) controllable system (Lin, et al. (2004) J. Neurosci. 24: 10074-10083) were generated. To drive tTA expression in astrocytes, the transcriptional regulatory region of the glial fibrillary acidic protein (GFAP) gene was chosen (Brenner, et al. (1994) J. Neurosci. 14: 1030-1037). GFAP/tTA mice were mated with TRE/IFN-γ mice to produce animals hemizygous for both transgenes. When these mice are maintained on doxycycline (DOX+), expression of the IFN-γ transgene is repressed (FIG. 10A); when the double transgenic mice are released from doxycycline (DOX−) INF-γ is expressed. For the purpose of these experiments, mice received doxycycline up to day 14 of development (E14), at which time the experimental animals (DOX−) stopped receiving doxycycline, while the control animals (DOX+) were continuously fed the dug. The mRNA for IFN-γ could be detected in the DOX− mice as early as 10 days after birth (data not shown).
Brain and spinal cord tissue were analyzed using immunohistochemical methods as follows. Anesthetized mice were perfused through the left cardiac ventricle with 4% paraformaldehyde in 0.1M PBS. The half-saggital brains and transcervical spinal cord were removed, postfixed with paraformaldehyde, cryopreserved in 30% sucrose, embedded in OCT and frozen on dry ice. Frozen sections were cut in a cryostat at a thickness of 10 μm. Coronal sections at the fornix region of the corpus callosum corresponding to. Sidman sections 241-251 were selected for use, and all comparative analyses were restricted to midline corpus callosum (Sidman, et al. (1971) Atlas of the Mouse Brain and Spinal Cord (Harvard Univ. Press, Cambridge, Mass.). For immunohistochemistry, frozen sections were treated with −20° C. acetone, blocked with PBS containing 10% NGS and 0.1% Triton X-100 and incubated overnight with the primary antibody diluted in blocking solution. Appropriate fluorochrome- or enzyme-labeled secondary antibodies (Vector Laboratories, Burlingame, Calif.) were used for detection. An antibody against CC1 (APC7, 1:50; EMD Biosciences, Inc., La Jolla, Calif.) was used as a marker for mature oligodendrocytes. Antibody against MBP (1:1000; Sternberger Monoclonals, Lutherville, Mass.) was used to verify the degree of myelination. Antibody against active-caspase-3 (1:50, Cell signaling Technology, Beverly, Mass.) was used as a marker for apoptotic cells. Fluorescent stained sections were mounted with Vectashield mounting medium with DAPI (Vector Laboratories) and visualized with a Zeiss Axioplan fluorescence microscope. Images were captured using a Photometrics PXL CCD camera connected to an Apple Macintosh computer using the Open Lab software suite. Immunopositive cells were quantified by counting positive cells within the median of the corpus callosum, confined to an area of 0.04 mm^2. Only those cells with nuclei observable by DAPI staining were counted. Each MBP immunostaining slide was scored on a scale of zero to four. A score of zero indicates complete demyelination, and a score of four indicates normal myelination in the corpus callosum of adult mice. […]

B1: IFN-γ: pleotropic cytokine secreted by activated T lymphocytes and natural killer cells; recombinant rat IFN-γ added to cultures or transgenically expressed in mouse CNS (protein, UniProt P01581 23-156, looked up)
Interferon gamma: QGTLIESLESLKNYFNSSSMDAMEGKSLLLDIWRNWQKDGNTKILESQIISFYLRLFEVLKDNQAISNNISVIESHLITNFFSNSKAKKDAFMSIAKFEVNNPQIQHKAVNELIRVIHQLSPESSLRKRKRSRC
Q: How did the “unmyelinated axons in the spinal cord” value (14-day-old, IFN-γ expressed, PERK+/− background, doxycycline-maintained 9.8%±6.1%) turn out when B1 was run?
A: 81%±14.9%

Q: And the “decrease of oligodendrocyte numbers in the spinal cord” value (14-day-old, IFN-γ expressing, PERK+/− background)?
A: more than 50%

Q: And the “unmyelinated axons in the spinal cord” value (14-day-old, released from doxycycline at E14, wild-type background)?
A: 30%±12.9%

Q: What about the “mice that died by post natal day (PND) 27” value (double transgenic, released from doxycycline at E14, PERK+/− background) of the same molecule?
A: more than 90%

Q: And the “TUNEL positive oligodendrocytes in the cervical spinal cord, PERK+/− versus wild-type background” value (released from doxycycline at E 14)?
A: 2.5 times
